Laboratory results reported in patent US20110059102A1, “Therapeutic Method Targeting Midkine” (NATIONAL UNIVERSITY CORPORATION NAGOYA UNIVERSITY, priority 2009, published 2011).
Entries after “also recorded” stand apart in the source; their conditions may differ. Where two headings read alike, the source gives them in different places.

Experiments:
[1] = tested on: PKC; test: Phospho-PKC expression in HMVEC-L by Western blotting; format: cell-based, human; settings: exogenous MK 100 ng/ml plus heparin 20 μg/ml
Text: Histology and immunohistochemistry. The removed kidneys and lungs were fixed in 10% buffered formalin, embedded in paraffin, and then cut into 4-10.1 μm sections. The sections were stained with H&E, PAS, and Masson's trichrome. Another tissue sample was embedded in OCT compound (Sakura Finetek) and frozen in liquid nitrogen for immunostaining. Sections were cut to a thickness of 3 μm with a cryostat and fixed in acetone. High-power fields were used to examine the sections for evidence of focal sclerosis (J. Hypertens. 13:1785-1790, J. Lab. Clin. Med. 115:165-173). Glomerular sclerosis was assessed by semiquantitative score (grades 0 to +4) using the method of Raij et al. (Kidney Int. 26:137-143): grade 0, no sclerosis of glomeruli; grade 1, sclerosis of up to 25% of glomerulus; grade 2, sclerosis of 25%-50% of glomerulus; grade 3, sclerosis of 50%-75% of glomerulus; grade 4, sclerosis of 75%-100% of glomerulus. At least 50 glomeruli were evaluated under ×400 magnification and results averaged for each kidney (Mdk^+/+: 2 weeks, n=5; 4 weeks, n=4; 8 weeks, n=4; Mdk^−/−: 2 weeks, n=4; 4 weeks, n=3; 8 weeks, n=3). Immunostaining for ACE and MK was performed on buffered formalin-fixed tissues. […] The lung and kidney section from each mouse was viewed under ×400 magnification, and then macrophages or neutrophils were counted from 10 fields and averaged. […]

[2] = compared with mouse MK produced in L cells; cited from earlier work
[3] = tested on: cerebral ischemia reperfusion insult model; settings: cited from earlier work
[4] = tested on: ACE; test: ACE expression in HMVEC-L by Western blotting; format: cell-based, human; settings: exogenous MK protein 100 ng/ml plus heparin 20 μg/ml
Text: Histology and immunohistochemistry. The removed kidneys and lungs were fixed in 10% buffered formalin, embedded in paraffin, and then cut into 4-10.1 μm sections. The sections were stained with H&E, PAS, and Masson's trichrome. Another tissue sample was embedded in OCT compound (Sakura Finetek) and frozen in liquid nitrogen for immunostaining. Sections were cut to a thickness of 3 μm with a cryostat and fixed in acetone. High-power fields were used to examine the sections for evidence of focal sclerosis (J. Hypertens. 13:1785-1790, J. Lab. Clin. Med. 115:165-173). Glomerular sclerosis was assessed by semiquantitative score (grades 0 to +4) using the method of Raij et al. (Kidney Int. 26:137-143): grade 0, no sclerosis of glomeruli; grade 1, sclerosis of up to 25% of glomerulus; grade 2, sclerosis of 25%-50% of glomerulus; grade 3, sclerosis of 50%-75% of glomerulus; grade 4, sclerosis of 75%-100% of glomerulus. At least 50 glomeruli were evaluated under ×400 magnification and results averaged for each kidney (Mdk^+/+: 2 weeks, n=5; 4 weeks, n=4; 8 weeks, n=4; Mdk^−/−: 2 weeks, n=4; 4 weeks, n=3; 8 weeks, n=3). Immunostaining for ACE and MK was performed on buffered formalin-fixed tissues. Sections were deparaffinized, rehydrated, incubated in 3% hydrogen peroxide in methanol to block endogenous peroxidase, and washed in 10% normal goat serum (Dako) in PBS to block nonspecific binding. Subsequently, sections were incubated with mouse anti-ACE monoclonal antibody (dilution, 1:400; Chemicon International, Millipore) or anti-MK monoclonal antibody (dilution, 1:100) overnight at 4° C. as described previously (22), followed by a conjugate of polyclonal goat anti-mouse IgG antibody and HRP-labeled polymer (Histofine Simple Stain; Nichirei) for 1 hour at room temperature as a secondary antibody. The staining was visualized with 3-3′ diaminobenzidine (Nichirei) to produce a brown color. The sections were covered with 90% glycerol containing p-phenylenediamine and were examined by electron microscopy (H-7100; Hitachi). For double immunofluorescence staining of MK and thrombomodulin as a marker of the vascular endothelium, the cryosections of lungs were first incubated with chicken anti-human MK (dilution, 1:200) and then with rabbit anti-rat thrombomodulin (dilution, 1:1,000) (J. Immunol. 150:5633-5646), followed by incubation with FITC-labeled rabbit anti-chicken IgG (dilution, 1:160) and rhodamine-labeled goat anti-rabbit IgG (dilution, 1:320) as secondary antibodies. […] The lung and kidney section from each mouse was viewed under ×400 magnification, and then macrophages or neutrophils were counted from 10 fields and averaged. […]

[5] = tested on: retinal nerve degeneration model; settings: prior injection of midkine; cited from earlier work
[6] = tested on: ACE; test: rh-MK and -PTN treatment model, ACE expression in the lung by Western blotting; format: in vivo; settings: Mdk-/- mice after 5/6 nephrectomy, 1.6 mg/ml, 100 μl by osmotic pump over 14 days
Protocol: (§1) rh-MK and -PTN treatment model. In the pump study, MK protein in saline (1.6 mg/ml) (n=5), PTN in saline (1.6 mg/ml; n=5), or saline alone (n=5) was infused using an osmotic pump (ALZA Corp.) into Mdk^−/− mice after 5/6 nephrectomy. The pumps continuously infused a total of 100 μl over 14 days. The pumps were implanted under the dorsal skin the next day after 5/6 nephrectomy. Blood pressure was measured by the indirect tail-cuff technique at 0 and 2 weeks after 5/6 nephrectomy. Mice were sacrificed at 2 weeks after 5/6 nephrectomy, and blood and tissue samples were collected.
Western blot analysis. Mouse kidney, lung, brain, heart, and liver tissues were snap-frozen in liquid nitrogen for protein isolation. Western blot analysis was performed as described previously (Br. J. Cancer. 75:354-359). The blots were subsequently incubated with goat anti-human MK antibody (dilution, 1:1,000), monoclonal anti-β-actin antibody (dilution, 1:1,000; Sigma-Aldrich), mouse anti-ACE monoclonal antibody (dilution, 1:1,000; Chemicon International, Millipore), or rabbit anti-phospho-PKC antibody (dilution, 1:1,000; Cell Signaling Technology), followed by incubation with peroxidase-conjugated goat IgG, mouse IgG, or rabbit IgG (dilution, 1:5,000; Jackson Immunoresearch Laboratories Inc.). […] The density of each band was measured using the public domain NIH Image program (http://rsb.info.nih.gov/nih-image/).

[7] = tested on: acute myocardial infarction model; settings: administration of midkine; cited from earlier work
[8] = tested on: Mdk-/- mice after 5/6 nephrectomy; test: rh-MK and -PTN treatment model (osmotic pump), blood pressure by tail-cuff; format: in vivo; settings: 1.6 mg/ml, 100 μl by osmotic pump over 14 days
Protocol: as §1
Blood pressure monitoring. Blood pressure was measured in restrained, conscious mice by the indirect tail-cuff technique under unstressed conditions (BP-98A; Softron) at 0, 2, 4, 6, and 8 weeks after 5/6 nephrectomy (J. Lab. Clin. Med. 78:957-962). Before measurement, the mice were warmed with a heating pad for 5 minutes. A total of 7-10 readings were taken for each mouse, at 1- to 2-minute intervals.

[9] = tested on: HMVEC-L; test: Ang II concentration in HMVEC-L (conversion from Ang I to Ang II); format: cell-based, human; settings: HMVEC-L treated 36 hours with MK 100 ng/ml plus heparin 20 μg/ml or heparin alone, then Ang I added
Protocol: Ang II concentration in HMVEC-L. After reaching confluence, HMVEC-L were washed with PBS and cultured for 24 hours in essential basal medium containing 0.5% FBS. These cells were exposed to 100 ng/ml rh-MK plus 20 μg/ml heparin or 20 μg/ml heparin alone in essential basal medium containing 0.5% FBS for 36 hours. After stimulation, HMVEC-L were washed with PBS and exposed to 500 pM Ang I (Sigma-Aldrich) for 10 and 25 minutes. Supernatants were collected into chilled tubes, and then the Ang II concentration was measured as previously described (Hypertension. 39:129-134).

B1: MK: recombinant human midkine produced in Pichia pastoris; 13 kDa heparin-binding protein (protein, UniProt P21741 21-143, looked up)
Midkine: VAKKKDKVKKGGPGSECAEWAWGPCTPSSKDCGVGFREGTCGAQTQRIRCRVPCNWKKEFGADCKYKFENWGACDGGTGTKVRQGTLKKARYNAQCQETIRVTKPCTPKTKAKAKAKKGKGKD
[1]
  Phosphorylation levels of PKC: increased
[2]
  Neurotrophic activity: comparable
[3]; post-insult therapeutic administration
  Loss of hippocampal neuronal cells: ineffective
[3]; prior ventricular administration of midkine
  Loss of hippocampal neuronal cells: able to remedy
[4]
  ACE expression in HMVEC-L: significantly enhanced; also recorded: induced
[5]
  Neuronal cell loss: reduced
[6]
  ACE expression in the lung: restored
[7]
  Apoptotic loss of myocardial cells: reduction
[8]
  Hypertension (SBP): restore hypertension; also recorded: restored
[9]
  Conversion of Ang I to Ang II: converted to Ang II in a time-dependent manner
